B1: humanized anti-BCMA antibody C11D5.3-03 (scFv) (scFv, V domains shown)
VH: QIQLVQSGSELKKPGASVKVSCKASGYTFTDYSINWVRQAPGQGLEWMGWINTETREPAYAQGFTGRFVFSLDTSVSTAYLQISSLKAEDTAVYFCALDYSYAMDYWGQGTLVTVSS
VL: EIVLTQSPATLSMSLGERATLSCRASQSVTILGSHLIHWYQQKPGQPPRLLIQLASNVQTGIPARFSGSGSRTDFTLTISSLEEEDFAVYYCLQSRTIPRTFGGGTKVEIK
notes: For the soluble protein it states neither the domain order nor the linker
B2: humanized anti-BCMA antibody C11D5.3-04 (scFv) (scFv, V domains shown)
VH: QIQLVQSGSELKKPGASVKVSCKASGYTFTDYSMNWVRQAPGQGLEWMGWINTETREPTYAQGFTGRFVFSLDTSVSTAYLQISSLKAEDTAVYFCALDYSYAMDYWGQGTLVTVSS
VL: EIVLTQSPATLSMSLGERATLSCRASESVTILGSHLIHWYQQKPGQPPRLLIQLASNRATGIPARFSGSGSRTDFTLTISSLEEEDFAVYYCLQSRTIPRTFGGGTKVEIK
notes: as for B1
B3: murine anti-BCMA antibody C11D5.3 (scFv), reference antibody (scFv, V domains shown)
VH: QIQLVQSGPELKKPGETVKISCKASGYTFTDYSINWVKRAPGKGLKWMGWINTETREPAYAYDFRGRFAFSLETSASTAYLQINNLKYEDTATYFCALDYSYAMDYWGQGTSVTVSS
VL: DIVLTQSPPSLAMSLGKRATISCRASESVTILGSHLIHWYQQKPGQPPTLLIQLASNVQTGVPARFSGSGSRTDFTLTIDPVEEDDVAVYYCLQSRTIPRTFGGGTKLEIK

Columns and labels:
[1] = molecular target: T1, human BCMA expressed on human multiple myeloma cells (U266, MM.1S, RPMI8226) (human, UniProt Q02223 1-184); assay: flow cytometry (FACS) on U266 cells
T1 construct: whole, on cells; Endogenous BCMA on tumor cell lines; also called BCMA-expressing tumor cells; BCMA+ cell line
T1 sequence (looked up): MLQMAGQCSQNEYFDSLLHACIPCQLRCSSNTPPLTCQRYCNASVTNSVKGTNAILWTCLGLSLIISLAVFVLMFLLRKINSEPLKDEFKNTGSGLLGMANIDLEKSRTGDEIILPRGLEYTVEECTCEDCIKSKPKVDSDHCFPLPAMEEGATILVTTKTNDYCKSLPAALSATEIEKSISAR
Experimental: (§1) Cells (human myeloma cells expressing BCMA or tissue cells not expressing BCMA) were digested, and 500,000 cells were seeded in 50 μL of PBS containing 2% FBS (FACS buffer) in a U-bottom 96-well plate. The test samples were subjected to a 3-fold serial dilution by diluting ⅓ volume (100 μL) in 200 μL of FACS buffer, starting at a concentration of 300 μg/mL (final concentration). 50 μL of the diluted antibody was added to each well of the cell plate and incubated at 4° C. for 1 hour. After washing twice with FACS buffer, 100 μL of secondary antibody (Abcam ab97003, 5 μg/mL, diluted in FACS buffer) was added to each well, and incubated at 4° C. for 0.5 hours. After staining and washing twice with FACS buffer, 200 μL of FACS buffer was added to each well, and reading was performed on the machine (BD C6plus).

[2] = molecular target: T1, human BCMA expressed on human multiple …; assay: flow cytometry (FACS) on MM.1S cells
Experimental: as §1

[3] = molecular target: T1, human BCMA expressed on human multiple …; assay: flow cytometry (FACS) on RPMI8226 cells
Experimental: as §1

[4] = molecular target: T2, recombinant human BCMA protein (Sino Biological, 10620-H08H) (human, UniProt Q02223 1-54); assay: ELISA, BCMA protein coated at 1 µg/mL, HRP anti-human secondary antibody
T2 construct: Bought protein, coated on the ELISA plate
T2 sequence (looked up): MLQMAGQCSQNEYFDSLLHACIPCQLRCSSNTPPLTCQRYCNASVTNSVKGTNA
Experimental: The binding activity of the antibodies to human BCMA protein was assessed using an ELISA method, and the antibody potency was compared using dose-dependent binding curves in ELISA.
BCMA protein (Sino Biological, 10620-H08H) was diluted to 1 μg/mL in PBS, 100 μL of the protein solution was added to each well of the ELISA plate and incubated at 4° C. overnight. The plate was washed 3 times in wash buffer (PBS, 0.05% Tween 20), and non-specific sites were blocked by adding 200 μl/w PBS+2% BSA blocking solution. C11D5.3-03, C11D5.3-04 or murine antibody C11D5.3 was added and incubated at 37° C. for 2 h. The plate was washed 3 times in wash buffer, and HRP-conjugated goat anti-human secondary antibody was added and incubated for 1 h at room temperature. The plate was washed 3 times in wash buffer, and the bound secondary antibody was detected by adding TMB (HRP substrate) and incubating the plate in the dark at room temperature for 5 to 10 minutes. The enzymatic reaction was stopped by adding 1M of sulfuric acid solution, and the light absorption at 450 nm was measured.

[5] = molecular target: human Burkitt's lymphoma cell Daudi; assay: flow cytometry (FACS) on Daudi cells, which Example 3 says do not express BCMA
Experimental: as §1

Row | Binder | EC50 [1] [µg/mL] | EC50 [2] [µg/mL] | EC50 [3] [µg/mL] | EC50 [4] [µg/mL] | EC50 [5] [µg/mL]
1 | B1 | 7.57 | 0.81 | 2.25 | 0.011 | 36.3
2 | B2 | 1.99 | 0.47 | 0.82 | 0.011 | 30.7
3 | B3 | 4.4 | 1.62 | 3.81 | 0.011 | 
